± gives the half width of the 95% confidence interval.
Tests used:
[1] = folding stability dG unfold (combined trypsin and chymotrypsin); higher = more stable
In short: (§1)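 Digests were run with trypsin and chymotrypsin at 11 concentrations in threefold dilutions, plus a no-protease condition, on designed mini-proteins in a PA-tagged cDNA display construct. The mini-proteins were under 80 residues, had no cysteine, and were kept only when AlphaFold2 dimer inter-PAE was above 15. After sequencing, Bayesian fitting of the counts gave K50, from which unfolding free energy was derived against a sequence-predicted unfolded-state K50 and a shared folded-state K50, per protease or combined.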

[2] = folding stability dG unfold from chymotrypsin proteolysis; higher = more stable
In short: as §1

[3] = folding stability dG unfold from trypsin proteolysis; higher = more stable
In short: as §1

Sequence | folding stability dG unfold [1] [kcal/mol] | folding stability dG unfold [2] [kcal/mol] | folding stability dG unfold [3] [kcal/mol]
SAGGSAGGSAGGSVAYVAPDGDKLIVRVVRPDGSVEEKEFDSLEDLKTLPDDVPVAFLVSAGGSAGGSAGGS [r4_447_TrMRF] | 0.516 ± 0.11 | -0.0498 ± 0.15 | 0.86 ± 0.034
SAGGSAGGSAGGSVPSVKLPKVGLKTDPVSSVLDFGEEKGDPVSVSIHLTLFLPDGTILLSAGGSAGGSAGG [r11_890_JUSTAS] | 0.672 ± 0.17 | 0.881 ± 0.12 | 0.161 ± 0.082
SAGGSAGGSAGGSVTSTSSVGSSPGSTTTLTYPEKPLYVTVYTELKDDPTVVTTETFPLLSAGGSAGGSAGG [r7_509_JUSTAS] | 1.56 ± 0.39 | 1.73 ± 0.066 | 1.22 ± 0.19
SAGGSAGGSAGGSYEVKEETEPKTGLKITTTTLPDGTIETTTINPATGEVTTTTSSPLESAGGSAGGSAGGS [r10_127_JUSTAS] | 1.73 ± 0.15 | 1.89 ± 0.052 | 1.34 ± 0.072
SAGGSAGGSAGGSYIIVQFPADEIKEALPPGFEIKSIERSPKNGWVMVAIRYPKDGKPISAGGSAGGSAGGS [r4_435_TrROS] | 0.818 ± 0.2 | 0.416 ± 0.17 | 1.04 ± 0.038
SAGGSAGGSAGGTITIPIYLDDKWITITRIELSPPDGKIKIEFTFNNRPREFDIPIPPGASAGGSAGGSAGG [r7_477_TrROS] | 2.36 ± 0.11 | 2.71 ± 0.074 | 1.9 ± 0.049
SAGGSAGGSAGGTITLPNGAKVTRIEFLPDGTLRVEAVVETDGGPVTVEITLPVYPSLATSAGGSAGGSAGG [r7_37_TrMRF] | 2.17 ± 0.037 | 2.13 ± 0.036 | 2.19 ± 0.058
SAGGSAGGSAGGTKTIPFPIEEIEVEHNPDNNYYHVTIRFPDNGKPITFMFPPGDTITISAGGSAGGSAGGS [r10_819_TrROS] | 0.868 ± 0.12 | 0.836 ± 0.15 | 0.812 ± 0.025
SAGGSAGGSAGGTLEAIKELAKDMPPGDKNIPIKIPDGKPYTIDVEMDPDGKMEIDIEPSAGGSAGGSAGGS [r10_1017_TrROS] | 0.466 ± 0.2 | -0.634 ± 0.86 | 1.19 ± 0.041
SAGGSAGGSAGGTLEFTFPGEGNLLAKVRIDLGESGNVRIDVYIYDGDTLLAKATFTLNLSAGGSAGGSAGG [r7_79_TrMRF] | 5.48 ± 0.13 | 5.46 ± 0.11 | 4.55 ± 0.12
SAGGSAGGSAGGVEIPPDKPVAIEVTSPEGPTATLIFDPKDGTVTVIEGGKPVEVPAEDFSAGGSAGGSAGG [r7_937_TrMRF] | -0.377 ± 0.29 | -1.06 ± 0.53 | 0.0909 ± 0.059
SAGGSAGGSAGGVEIVIMFPRGMPPEQFAKMIAKWLRRQGLPPNVKVDIKIIPIDPDDMSAGGSAGGSAGGS [r10_746_TrROS] | 3.15 ± 0.18 | 3.35 ± 0.066 | 2.82 ± 0.051
SAGGSAGGSAGGVGKDKPVIIKIKIKRKVYGLNTPELIAEEEEEIVVVVHPDVNPEKIKPSAGGSAGGSAGG [r7_591_TrMRF] | 1.83 ± 0.35 | 2.34 ± 0.056 | 1.06 ± 0.074
SAGGSAGGSAGGVKPGDFVLIKLTLTEKYYDPETGELIEEKEVELTILIPKGTSLEELKLSAGGSAGGSAGG [r7_591_TrROS_Hall] | 2.17 ± 0.25 | 1.96 ± 0.089 | 2.3 ± 0.17
SAGGSAGGSAGGVVVVEVEIRLSDEEIEALKDLGISAEDLTLRVTVVVELPPPPPAEEESAGGSAGGSAGGS [r10_1149_TrROS_Hall] | 1.5 ± 0.21 | 1.04 ± 0.13 | 2.23 ± 0.2
SAGGSAGGSAGGWDVEIEPFPDGFIFITAEGPNGRKLVIVVMVVPEGKLMYMIVPLDDLSAGGSAGGSAGGS [r10_140_TrROS] | 3.34 ± 0.19 | 3.71 ± 0.097 | 2.35 ± 0.095

Sequence | folding stability dG unfold [1] [kcal/mol] | folding stability dG unfold [2] [kcal/mol] | folding stability dG unfold [3] [kcal/mol]
SAGGSAGGSAGGWIRNKDGKPVKLEIYPFPVEMWMYRKKPDGGWEPHPMRMPFTFIRITPSAGGSAGGSAGG [r7_90_TrROS] | 1.65 ± 0.11 | 1.55 ± 0.11 | 1.59 ± 0.049
SAGGSAGGSAGGWYIYFPNHYYPIKKITINPGGNIEIEFPNGNERTFDNVSIMPPGQEISAGGSAGGSAGGS [r10_1151_TrROS] | 0.219 ± 0.097 | 0.105 ± 0.14 | 0.178 ± 0.047
SAGGSAGGSAGGYFIRINNGRTFPFPSPEDAEEIVKTIARPFGHPDMTIEIYRMPPEQFPSAGGSAGGSAGG [r7_839_TrROS] | 0.0194 ± 0.18 | -0.1 ± 0.24 | -0.0675 ± 0.22
SAGGSAGGSAGGYIEIVFAHPDPEPGYKYAMVMEIQMDPPGNMEMNIRVIKDPEDAKEAFSAGGSAGGSAGG [r11_792_TrROS] | 1.41 ± 0.19 | 1.43 ± 0.067 | 1.35 ± 0.12
SAGGSAGGSAGHMVKVKITKSKGGSSLPLEEKEIELDIDEEKLEELKEEAKKKGYTVEIESAGGSAGGSAGG [r17_18_JUSTAS] | -0.0397 ± 0.26 | 0.0362 ± 0.15 | 0.0424 ± 0.11
SAGGSAGGSAGHRSVMVTVDDIAKENGIKIPPGSYLMVTVEGNKVKDIMIQPMKPKPEDPSAGGSAGGSAGG [r11_616_TrROS] | -0.17 ± 0.18 | -0.0198 ± 0.24 | -0.499 ± 0.44
SAGGSAGGSAGIEIELNGKPVTIHPNPDGYYRVRFPGPGKSILIPGMPPDDIKDFAKELLSAGGSAGGSAGG [r11_1085_TrROS] | 0.0206 ± 0.1 | 0.137 ± 0.15 | -0.161 ± 0.15
SAGGSAGGSAGIEIHVMEDPDGRWWLMITIKVKYKVRNPEDGDPIFEFEVTYTIMIWLKASAGGSAGGSAGG [r17_124_TrROS] | > 6 | 5.9 ± 0.17 | 4.3 ± 0.24
SAGGSAGGSAGIKIPPGQKLSIEENPDGNMEIKFPDPGQKFTIPPNAPIEVDPNNWIYIKSAGGSAGGSAGG [r17_49_TrROS] | 0.181 ± 0.33 | 0.0738 ± 0.4 | 0.00801 ± 0.33
SAGGSAGGSAGIPLGPDGGLIVTEGPDGPVEERLFASPEEARRWIEEHLPEGWRVVFRPLSAGGSAGGSAGG [r11_983_TrMRF] | 1.47 ± 0.058 | 1.6 ± 0.13 | 1.15 ± 0.017
SAGGSAGGSAGIRLDSLEEALKYIRKNFPPGRTVEIRVYDGDKPVEITVQVDENGDIKIVSAGGSAGGSAGG [r17_69_TrROS] | 3.19 ± 0.092 | 3.227 ± 0.02 | 2.91 ± 0.15
SAGGSAGGSAGKAKIVKIEKVKNKNGETYYIIKLEGKKEIFVIKDKNGKKKKIPLKELKPSAGGSAGGSAGG [r17_286_TrROS_Hall] | 2.11 ± 0.048 | 2.37 ± 0.026 | 1.42 ± 0.043
SAGGSAGGSAGKEYIVRITLPNGKVYEFPGKLEDVVKALPPEYKDAVIEVFDPRTGKRVSSAGGSAGGSAGG [r11_353_TrMRF] | 3.84 ± 0.089 | 4.26 ± 0.057 | 2.53 ± 0.049
SAGGSAGGSAGKEYYVVAKVEDPSTGKVTVYVGPFSDFVKTFDPKNSKVEFFLVEKDALKSAGGSAGGSAGG [r11_334_TrMRF] | 2.89 ± 0.077 | 3.31 ± 0.044 | 1.87 ± 0.073
SAGGSAGGSAGKIDPKDIEKVEFEIDEESGKGKAFVILKNGEPAEIEFSSIEEAIKALLGSAGGSAGGSAGG [r11_339_TrMRF] | 1.37 ± 0.16 | 0.981 ± 0.14 | 1.93 ± 0.099

From the supplement of paper PMC12764529
